Assays:
DGI-2 = biological target: T1, DGI-2 (Homo sapiens, UniProt Q15004); assay: ELISA analysis of phage on DGI-2 polypeptide (specific binding); settings: for DGI-2 (OD): binding to DGI-2 polypeptide (specific binding), phage ELISA units read at 405 nm; for DGI-2/LDH (OD): ratio of specific binding to non-specific binding
T1 construct: encompassed the entire DGI-2 open reading frame (ORF); His-tag of vector pIVEX2.3-MCS (inferred from the vector and from the reverse primer lacking a stop codon); made in house; host or cells: cell-free in vitro translation (Rapid Translation System RTS, Roche; E. coli lysate)
T1 sequence (Q15004 1-111): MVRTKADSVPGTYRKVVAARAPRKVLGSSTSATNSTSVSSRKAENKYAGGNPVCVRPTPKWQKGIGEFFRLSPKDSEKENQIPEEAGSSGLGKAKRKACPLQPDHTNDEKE
Method in brief: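 Recombinant DGI-2 from in vitro translation, LDH (non-specific) and controls were coated at 500 ng/well and blocked with 2% milk-PBS. Phage from individual clones bound for 2 hr at room temperature, then anti-M13-HRP with ABTS was read at 405 nm; a clone counted as positive at ≥2-fold over background.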

E-tag antibody = assay: ELISA analysis of phage on antibody raised against ETAG (positive control); settings: peptide binding to E-tag antibody; phage ELISA units read at 405 nm
Method in brief: (§1)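 Phage from picked clones (M13KO7 helper) bound 2 hr at room temperature to wells coated overnight at 4 °C with 500 ng/well anti-ETAG antibody or LDH, milk-blocked. Detection with HRP-anti-M13 (1:3000) and ABTS at 405 nm; positive when A405 ≥2-fold over background.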

[1] = test system: lactate dehydrogenase (LDH); assay: ELISA analysis of phage on LDH (irrelevant, non-specific target); format: binding; settings: peptide binding to LDH polypeptide (non-specific binding); phage ELISA units read at 405 nm
Method in brief: as §1

Row | Substance | DGI-2 (OD) (DGI-2) | DGI-2/LDH (OD) (DGI-2) | LDH (OD) [1] | ETAG (OD) (E-tag antibody)
1 | SIILAGCVWVMPCGQNLGGV (DGI-2-20F-PP-C4; listed as Escherichia coli) | 3.0 OD | 3.2 | 0.9 OD | 36.1 OD
2 | GRAGTSMTELVAWGFVQRVG (DGI-2-20F-PP-H10; listed as Escherichia coli) | 1.4 OD | 1.9 | 0.7 OD | 13.0 OD
3 | LSLEGGWMWDTKGGDGGSAQ (DGI-2-20R-4-F93; listed as Escherichia coli) | 9.0 OD | 8.4 | 1.1 OD | 19.5 OD
4 | GIMQVAWGWREMTRLWDLGMA (GIMQVAWGWREWRLWDLGMA; DGI-2-20R-3-C6; listed as Escherichia coli) | 6.0 OD | 5.2 | 1.1 OD | 20.3 OD
5 | KVWGCGARRGWERLGHLNQV (DGI-2-20F-PP-B10; listed as Escherichia coli) | 1.9 OD | 2.4 | 0.8 OD | 27.1 OD
6 | CYLSRLFRSGQGIGQFGHVE (DGI-2-20F-PP-A82; listed as Escherichia coli) | 2.5 OD | 2.3 | 1.1 OD | 16.5 OD
7 | SLLCVVCRPVSGGRALGGVP (DGI-2-20F-PP-B42; listed as Escherichia coli) | 2.4 OD | 2.5 | 1.0 OD | 21.5 OD
8 | LGRIVRPCVVRLCGGV##GV (LGRIVRPCVVRLCGGVGV; DGI-2-20F-PP-G10; listed as Escherichia coli) | 2.5 OD | 2.0 | 1.2 OD | 30.1 OD
9 | VHSQGRMWAIPGLRGGTGAS (DGI-2-20R-3-D7; listed as Escherichia coli) | 5.2 OD | 5.3 | 1.0 OD | 18.7 OD
10 | ISGQVWSSWRFPGWGGKLF (ISGQVWSSWRFPGWGGKF; DGI-2-20R-3-D10; listed as Escherichia coli) | 4.7 OD | 4.5 | 1.1 OD | 19.6 OD
11 | VLCLE#ALGLSGLGWRVVVGP (VLCLEALGLSGLGWRVVVGP; DGI-2-20F-PP-G4; listed as Escherichia coli) | 2.5 OD | 2.2 | 1.1 OD | 25.6 OD
12 | LHRLGQSMGGTLDHLQGWGV (DGI-2-20R-4-E5; listed as Escherichia coli) | 1.2 OD | 1.1 | 1.1 OD | 17.9 OD
13 | RTLFINGGCCGKGSGGGRPL (DGI-2-20F-PP-G1; listed as Escherichia coli) | 1.4 OD | 1.4 | 1.0 OD | 21.8 OD
14 | GNKCFPPHDLFWDPCDQLQS (DGI-2-20R-4-F6; listed as Escherichia coli) | 2.3 OD | 2.3 | 1.0 OD | 13.2 OD

More lines, main results first:

Row | DGI-2 (OD) (DGI-2) | DGI-2/LDH (OD) (DGI-2) | LDH (OD) [1] | Substance | ETAG (OD) (E-tag antibody)
15 | 1.5 OD | 1.4 | 1.1 OD | GMWIRPNGHMELQGGYTARS (GMWIRPNGHMFLQGGYTARS; DGI-2-20R-4-G8; listed as Escherichia coli) | 14.5 OD
16 | 2.0 OD | 1.9 | 1.1 OD | RISVGQCGTSRCGGGRRGGG (DGI-2-20F-PP-D1; listed as Escherichia coli) | 3.0 OD
17 | 2.2 OD | 2.1 | 1.0 OD | SLSLYWDAQVGCEVFWGYCV (DGI-2-20R-3-C10; listed as Escherichia coli) | 14.7 OD
18 | 2.2 OD | 2.4 | 0.9 OD | VQSGRDLGGLLRGGTGTEASP (DGI-2-20F-PP-D3; listed as Escherichia coli) | 15.0 OD
19 | 10.2 OD | 9.8 | 1.0 OD | VWAAWVEGSLLSPRQEPVRD (DGI-2-20R-4-G4; listed as Escherichia coli) | 13.6 OD
20 | 8.7 OD | 8.1 | 1.1 OD | CGGWGAMWEAWVQGLNGAGC (DGI-2-20R-3-D4; listed as Escherichia coli) | 18.9 OD
21 | 7.6 OD | 7.1 | 1.1 OD | RDTMCGSVSWGIPGCEYSGM (DGI-2-20R-4-G122; listed as Escherichia coli) | 13.9 OD
22 | 1.8 OD | 2.0 | 0.9 OD | LAPMFLQNQVRTWAASRRPLPAGPSNARCETGSLSPWVPC (DGI-2-40F-3-B11; listed as Escherichia coli) | 7.9 OD
23 | 4.9 OD | 4.8 | 1.0 OD | MFQDVACDLWHSVRCLRRDV (DGI-2-20R-3-B3; listed as Escherichia coli) | 16.1 OD
24 | 4.8 OD | 5.1 | 0.9 OD | VLQRSLWKDWVDGVMHGGGSRGV (DGI-2-20R-3-A7; listed as Escherichia coli) | 13.9 OD
25 | 3.3 OD | 3.2 | 1.0 OD | GITGLFCLCLRSSQSI (DGI-2-20F-PP-D6; listed as Escherichia coli) [DGI-2-20F-P0P-D6] | 5.7 OD
26 | 3.5 OD | 3.9 | 0.9 OD | YAMSSRECGIRNSGLILSMW (DGI-2-20F-PP-C9; listed as Escherichia coli) | 31.6 OD
27 | 5.9 OD | 5.7 | 1.0 OD | GWGCSVPGILCVGGHRQGGG (DGI-2-20R-3-B11; listed as Escherichia coli) | 16.9 OD
28 | 9.6 OD | 8.8 | 1.1 OD | RRGVCEIFTGWCVGQTNERP (DGI-2-20R-4-H626; listed as Escherichia coli) | 13.5 OD
29 | 1.5 OD | 1.4 | 1.1 OD | FSSTGILLRSGRATAVGHVT (DGI-2-20F-3-A6; listed as Escherichia coli) | 13.2 OD
30 | 6.7 OD | 6.4 | 1.0 OD | WGCVFRQWASGSGAGCARRH (DGI-2-20R-3-D9; listed as Escherichia coli) | 19.7 OD
31 | 1.1 OD | 1.3 | 0.8 OD | WFTHVVEKIF [DGI-2-40F-3-A4] | 6.7 OD
32 | 1.7 OD | 2.2 | 0.8 OD | HSGNRQSGSRRTHLLNIFCSSDTFVFPGWSAYLSRVCPGD (DGI-2-40F-3-B122; listed as Escherichia coli) | 11.0 OD
